Consider 30 substances from paper PMC6424611.

As a reminder, the Kd is the constant that tells how readily two partners part at equilibrium.

Experiment [1] has as its target biotinylated RSK1 725-735 peptide, phosphorylated at Ser732 (position -3) (human) (UniProt Q15418). Nature of the experiment: holdup assay.
The target of experiment [2] is biotinylated RSK1 725-735 peptide, unphosphorylated (human) (UniProt Q15418). Nature of the experiment: holdup assay.
In experiment [3] the target is biotinylated RSK1 725-735 peptide, phosphorylated at Ser732 (position -3) (human) (UniProt Q15418). The experiment is described as follows: SPR. A general note: Surface plasmon resonance follows binding to a sensor surface in real time, without labels.
In experiment [4] the target is biotinylated RSK1 725-735 peptide, unphosphorylated (human) (UniProt Q15418). Nature of the experiment: SPR.
Experiment [5] has as its target Scribble PDZ1 (Homo sapiens) (UniProt Q14160). The experiment is described as follows: holdup assay. The following applies: cited from earlier work.
Experiment [6] concerns the target MBP-fused PDZ domain 1 of PDZRN3 (human) (UniProt Q9UPQ7). The experiment is described as follows: fluorescence polarisation. In general terms: In fluorescence polarisation assays a small probe gives low polarisation when free and higher when bound to something large.
Experiment [7] addresses MBP-fused PDZ domain of ARHGEF12 (human) (UniProt Q9NZN5). Nature of the experiment: fluorescence polarisation.
In experiment [8] the target is MBP-fused PDZ domain of GOPC (human) (UniProt Q9HD26). The experiment is described as follows: fluorescence polarisation.
The target in experiment [9] is MBP-fused PDZ domain of SYNJ2BP (human) (UniProt P57105). The experiment is described as follows: fluorescence polarisation.
Sequence of MBP-fused PDZ domain of SYNJ2BP (human) (P57105 13-100): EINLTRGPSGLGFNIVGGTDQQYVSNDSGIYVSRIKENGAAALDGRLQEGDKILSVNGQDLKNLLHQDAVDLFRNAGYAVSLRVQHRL

Sequence of MBP-fused PDZ domain 1 of PDZRN3 (human) (Q9UPQ7 249-339): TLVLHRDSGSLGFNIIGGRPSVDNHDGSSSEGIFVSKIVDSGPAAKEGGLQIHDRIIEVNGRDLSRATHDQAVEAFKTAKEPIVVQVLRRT
Sequence of MBP-fused PDZ domain of ARHGEF12 (human) (Q9NZN5 72-151): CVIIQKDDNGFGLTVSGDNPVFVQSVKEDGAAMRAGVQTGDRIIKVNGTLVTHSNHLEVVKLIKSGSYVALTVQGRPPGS
Sequence of HPV16 E6 PBM (P03126 whole entry, looked up): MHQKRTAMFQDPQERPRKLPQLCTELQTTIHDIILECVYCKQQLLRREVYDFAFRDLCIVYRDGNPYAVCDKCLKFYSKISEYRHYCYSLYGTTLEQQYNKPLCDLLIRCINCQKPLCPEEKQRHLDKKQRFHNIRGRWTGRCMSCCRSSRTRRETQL
Sequence of Scribble PDZ1 (Homo sapiens) (Q14160 725-818): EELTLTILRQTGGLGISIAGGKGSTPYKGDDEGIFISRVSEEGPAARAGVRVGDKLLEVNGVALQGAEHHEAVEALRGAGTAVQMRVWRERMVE

“MBP-fused PDZ domain of SNTG2 (from UniProt Q9NY99 73-156) (domain or fragment)”: the values for the BI in experiment [1] and in experiment [2] were 0.52 and 0.41, respectively. Moreover, the Kd in experiment [1] amounted to 13.8 µM; in experiment [2], 22.1 µM; in experiment [3], 37 µM.
“PDZ domain of SHANK3 (from UniProt Q9BYB0 646-740) (domain or fragment)” displayed a Kd in experiment [1] of more than 100 µM. In addition, the BI in [2] was 0.27.
For the substance “PDZ domain of SHROOM2 (from UniProt Q13796 26-108) (domain or fragment)”, the BI in experiment [1] turned out to be 0.21. Further, the results for the dissociation constant (Kd) in [1] and in experiment [2] were 60.8 µM and more than 100 µM, respectively.
In experiment [1], “PDZ domain 3 of LNX1 (from UniProt Q8TBB1 507-593) (domain or fragment)” showed a BI of 0.24 and a Kd of 50.8 µM. Besides, in [2], the Kd was more than 100 µM.
In the case of “PDZ domain of LAP2 (from UniProt Q96RT1 1321-1410) (domain or fragment)”, in [1], the BI was 0.28. Also, the figures for the Kd in [1] and in experiment [2] were 40.8 µM and more than 100 µM, respectively.
In experiment [1], “MBP-fused PDZ domain 3 of PDZD7 (from UniProt Q9H5P4 862-934) (domain or fragment)” showed a BI of 0.15 and a Kd of 92.9 µM. In addition, in experiment [4], the Kd came out at 6.2 µM.
On to “MBP-fused PDZ domain of SYNJ2BP (from UniProt P57105 13-100) (domain or fragment)”, for which the figures for the BI in [1] and in experiment [2] were 0.54 and 0.26, respectively. Also, the Kd in experiment [1] was 12.6 µM; in experiment [2], 45.4 µM; in experiment [3] it was 25 µM.
Substance “PDZ domain of GORASP1 (domain or fragment)” came in with a Kd in [2] of more than 100 µM.
As for “MBP-fused PDZ domain 1 of PDZRN3 (from UniProt Q9UPQ7 249-339) (domain or fragment)”, the BI was 0.45 in [1] and 0.26 in [2]. The Kd is 18.6 µM in experiment [1] and 45.4 µM in experiment [2].
In [1], “PDZ domain of ARHGEF11 (from UniProt O15085 47-126) (domain or fragment)” had a Kd of more than 100 µM. In experiment [2], this substance returned a BI of 0.28 and a Kd of 40.8 µM.
On to HPV16 E6 PBM (from UniProt P03126), for which, in experiment [5], the Kd was 7.5 µM.
Consider “MBP-fused PDZ domain of SNTB1 (from UniProt Q13884 112-195) (domain or fragment)”, for which the values for the BI in experiment [1] and in experiment [2] were 0.45 and 0.22, respectively. Further, the Kd in experiment [1] is 18.6 µM; in [2], 57.2 µM; in experiment [3], 48 µM.
“MBP-fused PDZ domain 1 of NHERF3 (from UniProt Q5T2W1 9-90) (domain or fragment)”: in [1], the Kd is more than 100 µM. In experiment [2], this substance came in with a BI of 0.41 and a Kd of 22.1 µM.
For “MBP-fused PDZ domain of SNTA1 (from UniProt Q13424 87-170) (domain or fragment)”, in [1], the BI was 0.53 and the Kd stood at 13.2 µM. In experiment [2], this substance displayed a BI of 0.31 and a Kd of 35.1 µM.
As for “MBP-fused PDZ domain 2 of GRID2IP (from UniProt A4D2P6 279-356) (domain or fragment)”, the Kd is more than 100 µM in experiment [1], 7.1 µM in experiment [2] and 3.96 µM in experiment [4]. In experiment [2], this substance displayed a BI of 0.67.
For the substance “PDZ domain 2 of NHERF2 (from UniProt Q15599 150-230) (domain or fragment)”, the Kd in experiment [1] was more than 100 µM; in experiment [2] it was 64.8 µM.
Turning to “PDZ domain 1 of GRID2IP (from UniProt A4D2P6 3-84) (domain or fragment)”, in experiment [1], the BI worked out at 0.24. The Kd is 50.8 µM in [1] and more than 100 µM in experiment [2].
In experiment [1], “MBP-fused second PDZ domain of MAGI1 (from UniProt Q96QZ7 472-554) (domain or fragment)” had a BI of 0.15 and a Kd of 92.9 µM. In experiment [2], the BI was determined as 0.43 and the Kd was found to be 20.3 µM.
In experiment [1], “MBP-fused PDZ domain 2 of MAGI2 (from UniProt Q86UL8 426-510) (domain or fragment)” yielded a BI of 0.23 and a Kd of 53.8 µM. Moreover, in experiment [2], the BI came out at 0.42 and the Kd was 21.2 µM.
In experiment [1], “PDZ domain of PTPN3 (from UniProt P26045 510-582) (domain or fragment)” had a BI of 0.21. Besides, the Kd in experiment [1] is 60.8 µM; in experiment [2], more than 100 µM.
As to “RSK1 683-735 peptide, unphosphorylated (from UniProt Q15418 683-735)”, the Kd in [6] was more than 100 µM; in [7], 6.6 µM; in experiment [8], 27 µM; in experiment [9] it was more than 100 µM.
Regarding “PDZ domain of PPP1R9A (from UniProt Q9ULJ8 504-592) (domain or fragment)”, the BI in experiment [1] turned out to be 0.33. Further, the Kd in experiment [1] was 31.8 µM; in [2], more than 100 µM.
“PDZ domain 3 of DFNB31 (from UniProt Q9P202 816-899) (domain or fragment)” came in with a Kd in [1] of more than 100 µM. In [2], this substance displayed a BI of 0.23 and a Kd of 53.8 µM.
On to “MBP-fused PDZ domain of MAST2 (from UniProt Q6P0Q8 1104-1192) (domain or fragment)”, for which the BI was found to be 0.23 in experiment [1] and 0.74 in [2]. Further, the Kd in experiment [1] was determined as 53.8 µM; in experiment [4] it was 7.02 µM.
In experiment [1], “PDZ domain of LIMK2 (from UniProt P53671 152-239) (domain or fragment)” gave a BI of 0.22 and a Kd of 57.2 µM. In [2], this substance yielded a Kd of more than 100 µM.
“MBP-fused PDZ domain of MAST1 (from UniProt Q9Y2H9 967-1055) (domain or fragment)” registered a Kd in [1] of more than 100 µM. In addition, in experiment [2], the BI is 0.57 and the Kd was determined as 11.1 µM.
For the substance “PDZ domain 2 of DLG4 (from UniProt P78352 160-246) (domain or fragment)”, in [1], the BI was 0.25. Besides, in experiment [2], the BI is 0.11 and the Kd is more than 100 µM.
“PDZ domain of GRASP (from UniProt Q7Z6J2 101-190) (domain or fragment)”: the Kd in [1] is more than 100 µM; in [2], 38.8 µM. For the same substance, the BI in experiment [2] worked out at 0.29.
In [1], “MBP-fused PDZ domain of HTRA1 (from UniProt Q92743 365-467) (domain or fragment)” gave a BI of 0.36 and an equilibrium dissociation constant (Kd) of 27.7 µM. In experiment [2], this substance displayed a BI of 0.44 and a Kd of 19.4 µM.
Turning to “MBP-fused PDZ domain of ARHGEF12 (from UniProt Q9NZN5 72-151) (domain or fragment)”, the Kd in experiment [1] was more than 100 µM; in experiment [2] it was 4.2 µM; in experiment [4], 2.79 µM. Also, in [2], the BI came out at 0.77.
